Here are results for four molecules from patent US20170190753A1 (LABORATOIRE FRANCAIS DU FRACTIONNEMENT ET DES …, published 2017).

Sequences and labels used below:
B1: pCEP4-1NT9-15CT20 (other)
chain: EDCNELPPRRNTEILTGSWSDQTYPEGTQAIYKCRPGYRSLGNVIMVCRKGEWVALNPLRKCQKRPCGHPGDTPFGTFTLTGGNVFEYGVKAVYTCNEGYQLLGEINYRECDTDGWTNDIPICEVVKCLPVTAPENGKIVSSAMEPDREYHFGQAVRFVCNSGYKIEGDEEMHCSDDGFWSKEKPKCVEISCKSPDVINGSPISQKIIYKENERFQYKCNMGYEYSERGDAVCTESGWRPLPSCEEKSCDNPYIPNGDYSPLRIKHRTGDEITYQCRNGFYPATRGNTAKCTSTGWIPAPRCTLKPCDYPDIKHGGLYHENMRRPYFPVAVGKYYSYYCDEHFETPSGSYWDHIHCTQDGWSPAVPCLRKCYFPYLENGYNQNYGRKFVQGKSIDVACHPGYALPKAQTTVTCMENGWSPTPRCIRVKTCSKSSIDIENGFISESQYTYALKEKAKYQCKLGYVTADGETSGSITCGKDGWSAQPTCIKSCDIPVFMNARTKNDFTWFKLNDTLDYECHDGYESNTGSTTGSIVCGYNGWSDLPICYEREGASGCSQPPQIEHGTINSSRSSQESYAHGTKLSYTCEGGFRISEENETTCYMGKWSSPPQCEGLPCKSPPEISHGVVAHMSDSYQYGEEVTYKCFEGFGIDGPAIAKCLGEKWSHPPSCIKTDCLSLPSFENAIPMGEKKDVYKAGEQVTYTCATYYKMDGASNVTCINSRWTGRPTCRDTSCVNPPTVQNAYIVSRQMSKYPSGERVRYQCRSPYEMFGDEEVMCLNGNWTEPPQCKDSTGKCGPPPPIDNGDITSFPLSVYAPASSVEYQCQNLYQLEGNKRITCRNGQWSEPPKCLHPCVISREIMENYNIALRWTAKQKLYSRTGESVEFVCKRGYRLSSRSHTLRTTCWDGKLEYPTCAKRGGSGHHHHHH
B2: pCEP4-1NT8-12CT20 (other)
chain: EDCNELPPRRNTEILTGSWSDQTYPEGTQAIYKCRPGYRSLGNVIMVCRKGEWVALNPLRKCQKRPCGHPGDTPFGTFTLTGGNVFEYGVKAVYTCNEGYQLLGEINYRECDTDGWTNDIPICEVVKCLPVTAPENGKIVSSAMEPDREYHFGQAVRFVCNSGYKIEGDEEMHCSDDGFWSKEKPKCVEISCKSPDVINGSPISQKIIYKENERFQYKCNMGYEYSERGDAVCTESGWRPLPSCEEKSCDNPYIPNGDYSPLRIKHRTGDEITYQCRNGFYPATRGNTAKCTSTGWIPAPRCTLKPCDYPDIKHGGLYHENMRRPYFPVAVGKYYSYYCDEHFETPSGSYWDHIHCTQDGWSPAVPCLRKCYFPYLENGYNQNYGRKFVQGKSIDVACHPGYALPKAQTTVTCMENGWSPTPRCIRVKTCSKSSIDIENGFISESQYTYALKEKAKYQCKLGYVTADGETSGSITCGKDGWSAQPTCIKSGASGCGDIPELEHGWAQLSSPPYYYGDSVEFNCSESFTMIGHRSITCIHGVWTQLPQCVAIDKLKKCKSSNLIILEEHLKNKKEFDHNSNIRYRCRGKEGWIHTVCINGRWDPEVNCSMAQIQLCPPPPQIPNSHNMTTTLNYRDGEKVSVLCQENYLIQEGEEITCKDGRWQSIPLCVEKIPCSQPPQIEHGTINSSRSSQESYAHGTKLSYTCEGGFRISEENETTCYMGKWSSPPQCEGLPCKSPPEISHGVVAHMSDSYQYGEEVTYKCFEGFGIDGPAIAKCLGEKWSHPPSCIKTDCLSLPSFENAIPMGEKKDVYKAGEQVTYTCATYYKMDGASNVTCINSRWTGRPTCRDTSCVNPPTVQNAYIVSRQMSKYPSGERVRYQCRSPYEMFGDEEVMCLNGNWTEPPQCKDSTGKCGPPPPIDNGDITSFPLSVYAPASSVEYQCQNLYQLEGNKRITCRNGQWSEPPKCLHPCVISREIMENYNIALRWTAKQKLYSRTGESVEFVCKRGYRLSSRSHTLRTTCWDGKLEYPTCAKRGGSGHHHHHH
B3: pCEP4-1NT10-19CT20 (other)
chain: EDCNELPPRRNTEILTGSWSDQTYPEGTQAIYKCRPGYRSLGNVIMVCRKGEWVALNPLRKCQKRPCGHPGDTPFGTFTLTGGNVFEYGVKAVYTCNEGYQLLGEINYRECDTDGWTNDIPICEVVKCLPVTAPENGKIVSSAMEPDREYHFGQAVRFVCNSGYKIEGDEEMHCSDDGFWSKEKPKCVEISCKSPDVINGSPISQKIIYKENERFQYKCNMGYEYSERGDAVCTESGWRPLPSCEEKSCDNPYIPNGDYSPLRIKHRTGDEITYQCRNGFYPATRGNTAKCTSTGWIPAPRCTLKPCDYPDIKHGGLYHENMRRPYFPVAVGKYYSYYCDEHFETPSGSYWDHIHCTQDGWSPAVPCLRKCYFPYLENGYNQNHGRKFVQGKSIDVACHPGYALPKAQTTVTCMENGWSPTPRCIRVKTCSKSSIDIENGFISESQYTYALKEKAKYQCKLGYVTADGETSGSITCGKDGWSAQPTCIKSCDIPVFMNARTKNDFTWFKLNDTLDYECHDGYESNTGSTTGSIVCGYNGWSDLPICYERECELPKIDVHLVPDRKKDQYKVGEVLKFSCKPGFTIVGPNSVQCYHFGLSPDLPICKEQVQSGASGCGPPPPIDNGDITSFPLSVYAPASSVEYQCQNLYQLEGNKRITCRNGQWSEPPKCLHPCVISREIMENYNIALRWTAKQKLYSRTGESVEFVCKRGYRLSSRSHTLRTTCWDGKLEYPTCAKRGGSGHHHHHH
B4: pCEP4-1NT8-19CT20 (other)
chain: EDCNELPPRRNTEILTGSWSDQTYPEGTQAIYKCRPGYRSLGNVIMVCRKGEWVALNPLRKCQKRPCGHPGDTPFGTFTLTGGNVFEYGVKAVYTCNEGYQLLGEINYRECDTDGWTNDIPICEVVKCLPVTAPENGKIVSSAMEPDREYHFGQAVRFVCNSGYKIEGDEEMHCSDDGFWSKEKPKCVEISCKSPDVINGSPISQKIIYKENERFQYKCNMGYEYSERGDAVCTESGWRPLPSCEEKSCDNPYIPNGDYSPLRIKHRTGDEITYQCRNGFYPATRGNTAKCTSTGWIPAPRCTLKPCDYPDIKHGGLYHENMRRPYFPVAVGKYYSYYCDEHFETPSGSYWDHIHCTQDGWSPAVPCLRKCYFPYLENGYNQNYGRKFVQGKSIDVACHPGYALPKAQTTVTCMENGWSPTPRCIRVKTCSKSSIDIENGFISESQYTYALKEKAKYQCKLGYVTADGETSGSITCGKDGWSAQPTCIKSGASGCGPPPPIDNGDITSFPLSVYAPASSVEYQCQNLYQLEGNKRITCRNGQWSEPPKCLHPCVISREIMENYNIALRWTAKQKLYSRTGESVEFVCKRGYRLSSRSHTLRTTCWDGKLEYPTCAKRGGSGHHHHHH
For C3 convertase activity % of the control in this document: test concentration or dose not given here.

Sequence of C3 convertase complex (P01024 23-1663, chain 1 of 2): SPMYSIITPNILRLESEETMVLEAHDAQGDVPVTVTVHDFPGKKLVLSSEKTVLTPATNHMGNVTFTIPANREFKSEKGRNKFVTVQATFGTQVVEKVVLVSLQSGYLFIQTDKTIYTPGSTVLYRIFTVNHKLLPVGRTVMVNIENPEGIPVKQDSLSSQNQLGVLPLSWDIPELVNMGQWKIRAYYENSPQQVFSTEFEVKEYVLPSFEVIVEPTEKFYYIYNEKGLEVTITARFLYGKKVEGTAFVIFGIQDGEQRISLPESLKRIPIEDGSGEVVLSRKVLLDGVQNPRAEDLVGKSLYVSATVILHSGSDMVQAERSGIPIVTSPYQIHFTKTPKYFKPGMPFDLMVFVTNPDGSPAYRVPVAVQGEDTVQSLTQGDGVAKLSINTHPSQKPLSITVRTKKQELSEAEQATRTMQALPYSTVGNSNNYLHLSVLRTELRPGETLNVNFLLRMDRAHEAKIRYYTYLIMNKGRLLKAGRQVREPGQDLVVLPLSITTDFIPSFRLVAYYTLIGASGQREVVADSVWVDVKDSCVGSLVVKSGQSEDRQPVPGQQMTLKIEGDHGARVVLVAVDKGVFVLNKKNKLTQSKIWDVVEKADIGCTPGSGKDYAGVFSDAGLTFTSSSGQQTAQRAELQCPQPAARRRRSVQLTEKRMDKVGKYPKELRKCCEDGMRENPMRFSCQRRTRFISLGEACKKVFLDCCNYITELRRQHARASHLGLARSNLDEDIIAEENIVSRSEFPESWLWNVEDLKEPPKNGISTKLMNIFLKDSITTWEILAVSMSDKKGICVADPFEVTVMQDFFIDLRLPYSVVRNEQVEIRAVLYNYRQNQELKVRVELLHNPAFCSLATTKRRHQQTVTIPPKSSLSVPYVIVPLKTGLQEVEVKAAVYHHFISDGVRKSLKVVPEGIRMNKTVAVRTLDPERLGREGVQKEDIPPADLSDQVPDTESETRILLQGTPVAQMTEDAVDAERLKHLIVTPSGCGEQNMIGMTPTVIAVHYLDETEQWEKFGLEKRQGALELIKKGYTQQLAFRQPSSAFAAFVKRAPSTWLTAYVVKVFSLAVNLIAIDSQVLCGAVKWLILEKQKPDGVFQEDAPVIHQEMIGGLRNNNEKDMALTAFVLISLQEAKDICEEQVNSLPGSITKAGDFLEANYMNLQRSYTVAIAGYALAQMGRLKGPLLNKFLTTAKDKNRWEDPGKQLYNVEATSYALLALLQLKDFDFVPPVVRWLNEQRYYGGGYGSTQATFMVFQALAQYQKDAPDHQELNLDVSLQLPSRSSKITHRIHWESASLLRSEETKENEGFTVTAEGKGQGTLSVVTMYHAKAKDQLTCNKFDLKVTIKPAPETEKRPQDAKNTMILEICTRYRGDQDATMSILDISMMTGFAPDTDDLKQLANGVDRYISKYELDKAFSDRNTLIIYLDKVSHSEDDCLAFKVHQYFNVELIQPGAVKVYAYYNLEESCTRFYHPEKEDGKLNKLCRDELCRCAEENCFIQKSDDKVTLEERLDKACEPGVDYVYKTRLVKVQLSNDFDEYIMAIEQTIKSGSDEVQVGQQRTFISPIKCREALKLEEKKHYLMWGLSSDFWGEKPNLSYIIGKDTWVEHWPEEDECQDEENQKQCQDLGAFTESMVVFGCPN
Sequence of C3 convertase complex (P00751 260-764, chain 2 of 2): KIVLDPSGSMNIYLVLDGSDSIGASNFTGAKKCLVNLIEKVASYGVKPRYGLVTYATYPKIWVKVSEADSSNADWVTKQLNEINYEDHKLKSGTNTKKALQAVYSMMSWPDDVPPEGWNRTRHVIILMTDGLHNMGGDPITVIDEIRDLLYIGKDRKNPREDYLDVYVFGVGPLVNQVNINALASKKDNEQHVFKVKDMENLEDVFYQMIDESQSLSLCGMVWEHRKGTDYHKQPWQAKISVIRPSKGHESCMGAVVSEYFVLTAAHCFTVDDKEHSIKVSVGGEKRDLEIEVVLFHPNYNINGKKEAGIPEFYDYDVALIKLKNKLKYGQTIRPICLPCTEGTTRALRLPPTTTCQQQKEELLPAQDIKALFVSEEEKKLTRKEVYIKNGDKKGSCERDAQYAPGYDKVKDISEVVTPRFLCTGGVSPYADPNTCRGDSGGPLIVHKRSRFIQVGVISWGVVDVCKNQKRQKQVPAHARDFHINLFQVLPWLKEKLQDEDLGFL

The assay has as its target C3 convertase complex (UniProt P01024 23-1663; P00751 260-764). Briefly: cell-based or functional assay.
With B1, the “C3 convertase activity % of the control” value was 5 % of the control and the “C3 convertase activity IC50” value was 2.19 mg/L.
As to B2, the “C3 convertase activity % of the control” value was 4 % of the control and the “C3 convertase activity IC50” value turned out to be 1.87 mg/L.
On to B3, for which the “C3 convertase activity % of the control” value was 1 % of the control and the “C3 convertase activity IC50” value is 6.05 mg/L.
For B4, the “C3 convertase activity % of the control” value is 0 % of the control and the “C3 convertase activity IC50” value was 493 mg/L.
